Positions count from the first letter of the chain named. Where two headings read alike, the source gives them in different places.
B1: 4B6-H3L3 (antibody, V domains shown)
VH: QVQLVQSGAEVVKPGASVKISCKASGYVFTDYYMNWVKQAPGQGLEWIGDINPNNGGTSYNQKFQGRATVTVDKSTRTAYMELSRLRSDDTAVYYCVKWGDGPFAYWGQGTLVTVSS
VL: DIQMTQSQSSLSASVGDRVTITCQASQNVGAAVAWYQQKPGKAPKLLIYSASNRYTGVPSRFSGSGSGTDFTLTISSMQPEDIATYFCQQYSNYPTFGSGTKLGIK
notes: Humanized; also called humanized 4B6 H3L3
B2: 4B6-H3L4 (antibody, V domains shown)
VH: B1 VH
VL: B1 VL with Q8P, R54L, M78L
notes: produced in 293 cells; light chain constant region not described; also called humanized 4B6 H3L4

How the values were obtained:
[1] = biological target: hPD-L1 (antigen of the Biacore assay) (human, UniProt Q9NZQ7 19-238, limits assumed); test: SPR (Biacore), antibody captured on anti-human Fc, antigen in flow
Chain of hPD-L1 (antigen of the Biacore assay) (Q9NZQ7 19-238 limits assumed): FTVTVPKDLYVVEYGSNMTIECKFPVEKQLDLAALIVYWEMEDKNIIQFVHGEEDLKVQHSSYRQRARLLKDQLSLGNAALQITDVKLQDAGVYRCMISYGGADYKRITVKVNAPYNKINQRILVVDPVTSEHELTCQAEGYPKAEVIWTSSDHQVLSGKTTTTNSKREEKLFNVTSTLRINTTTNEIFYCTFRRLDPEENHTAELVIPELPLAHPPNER
Description: A CM5 sensor chip was activated in each flow cell by 7-min injection (10 μl/min) of freshly prepared 1:1 50 mM N-hydroxysuccinimide (NHS): 200 mM 1-ethyl-3-(3-dimethylaminopropyl)-carbodiimide (EDC). Then anti-human Fc antibody (GE Healthcare) in a concentration of 10 μg/ml in 10 mM sodium acetate buffer PH 5.0 was injected onto the activated chip at 10 μl/min (HBS-EP running buffer: 10 mM HEPES, 150 mM NaCl, 3.4 mM EDTA, 0.005% surfactant P20, pH 7.4). The remaining active coupling sites were blocked by 7 min injection of 1M ethanolamine at 10 μl/min. The immobilization level of each flow cell is ˜9000RU. Antibodies were captured in FC2 by anti-human Fe IgG (GE Healthcare) to 200˜300RU. FC1 was used as the reference cell. Antigen was injected at varying concentrations after capture of antibody. The association time for antibody binding antigen is 180s. Surface Regeneration condition is 120s at 10 μl/min in Gly pH1.5. The signals with captured antibody subtracted from those without captured antibody were calculated with Biacore X100 evaluation software ver. 2.0 (Biacore).

[2] = biological target: T1, Human PD-L1/CD274 with C-Fc Tag (hPD-L1-Fc) (human, UniProt Q9NZQ7 19-238); test: blocking ELISA on coated hPD-L1-Fc; blocked ligand: biotinylated hPD-1-N297A
T1 construct: range 19-238; ACRO Biosystem PD1-H5258, made in HEK293; also called human PD-L1-Fc; not shown: Fc fragment of human IgG1 at C-terminus
T1 sequence (Q9NZQ7 19-238 limits assumed): as above
Description: High-binding clear polystyrene 96 well plates (Nunc) were coated with 100 μl/well of coating solution consisting of 1 μg/ml hPD-L1-Fc overnight at 4° C. Then the plates were washed once on an automatic plate washer using washing buffer (PBS+0.1% Tween 20 (Sigma)). 200 μl of blocking buffer (PBS+1% BSA+1% normal goat serum+0.05% Tween-20) was added to each well and incubated 2 hours at room temp. […] The plates were then washed 3 times using the method described above. […] After the plates were washed 3 times, 100 μl/well of a solution of 1:5000 diluted HRP conjugated Neutravidin antibody (Pierce) in dilution buffer was then added to each well of the plate. After that the ELISA plates were allowed to incubate for 60 min at RT, then the plates were washed 3 times with 250 μl/well washing buffer. Finally, 100 μl/well of TMB was added to each well and the reaction was terminated using 0.64M H₂SO₄. The plates were read on a Thermo Multiscan FC at 450 nM (see FIG. 18A to 18D).

[3] = biological target: T2, human PD-L1 expressed on cells (human, UniProt Q9NZQ7 19-290); test: blocking FACS on HCC827 cells; blocked ligand: biotinylated hPD-1-N297A
T2 construct: whole, on cells; also called hPD-L1 expressed on HCC827; hPD-L1 on MC38/hPD-L1 cells
T2 sequence (Q9NZQ7 19-290): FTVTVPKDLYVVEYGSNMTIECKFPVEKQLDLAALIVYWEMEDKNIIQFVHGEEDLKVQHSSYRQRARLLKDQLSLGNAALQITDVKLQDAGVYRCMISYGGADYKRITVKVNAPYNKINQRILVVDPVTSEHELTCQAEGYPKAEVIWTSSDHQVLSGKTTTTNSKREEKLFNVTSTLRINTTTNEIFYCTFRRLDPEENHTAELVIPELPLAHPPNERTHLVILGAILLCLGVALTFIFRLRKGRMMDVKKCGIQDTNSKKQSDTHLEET
Description: (§1) Log phase IFN-γ stimulated (500U/ml for 2 days) HCC827 cells were collected and resuspended in blocking buffer (5% BSA+PBS). 2×10\hat{ }5 cells were added to each tube and then washed once with PBS (1500 rpm, 5 mins, RT). The 100 μl/tube serial diluted PD-L1 antibodies (see FIG. 8) with blocking buffer were added into corresponding tubes and incubate at 4° C. for 1 hr. […] After washing for three times with PBS, 100 μl/tube streptavidin-PE 1:200 (EBiosciences) in blocking buffer was added to each tube. The cells were incubated at 4° C. for 1 hr and then washed twice with PBS, followed by resuspending cells in 150 μl PBS for each sample. The cells were then transferred into FACS tube and the binding of the antibodies to the cells were detected with flow cytometry (ACEA Bioscience Novocyte).

[4] = biological target: T2, human PD-L1 expressed on cells; test: FACS, IFN-gamma stimulated HCC827 cells
Description: Log phase IFN-γ stimulated (500U/ml for 2 days) HCC827 cells were collected and resuspended in blocking buffer (5% BSA+PBS). 2×10\hat{ }5 cells were added to each tube and then washed once with PBS (1500 rpm, 5 mins, RT). The 100 μl/tube serial diluted biotinylated PD-L1 antibodies with blocking buffer were added into corresponding tubes and incubate at 4° C. for 1 hr.

[5] = biological target: T2, human PD-L1 expressed on cells; test: FACS, IFN-gamma stimulated HCC827 cells; remark: listed apart in the source
[6] = biological target: T2, human PD-L1 expressed on cells; test: blocking FACS on HCC827 cells; blocked ligand: biotinylated hPD-1-N297A; remark: listed apart in the source
Description: as §1, with “RT).” for “RT). The 100 μl/tube serial diluted PD-L1 antibodies (see FIG. 8) with blocking buffer were added into corresponding tubes and incubate at 4° C. for 1 hr.”, “1:200” for “1:200 (EBiosciences)”, “Novocyte) (see FIGS. 20A and 20B).” for “Novocyte).”

| Binder | Kd [1] | koff [1] | kon [1] | IC50 (read off the curve) [2] | IC50 (read off the curve) [3] | EC50 (read off the curve) [4] | EC50 (read off the curve) [5] | IC50 (read off the curve) [6] |
| --- | --- | --- | --- | --- | --- | --- | --- | --- |
| B1 | 6.36 nM | 0.000927 s⁻¹ | 150000 M⁻¹ s⁻¹ | ~0.06 µg/mL | ~0.1 µg/mL | ~0.1 µg/mL |  |  |
| B2 |  |  |  | ~0.03 µg/mL |  |  | ~0.04 µg/mL | ~0.02 µg/mL |

Source: US20210009693A1 (MABSPACE BIOSCIENCES SUZHOU, published 2021)
